Laboratory results reported in patent US20160251450A1.
Each block holds one substance with its values, some of them ahead of it.

Assays:
[1] = biological target: Anti-OVA IgG (rabbit-derived); experiment: ELISA: OVA coated, rabbit Anti-OVA IgG, HRP-labeled anti-rabbit IgG. Signal against the no-antigen control
[2] = biological target: Anti-OVA IgG (rabbit-derived); experiment: ELISA: OVA coated, rabbit Anti-OVA IgG, then HRP-labeled anti-rabbit IgG instead of the hybrid, TMB (sample No. 8)
[3] = biological target: Anti-OVA IgG (rabbit-derived); experiment: ELISA: OVA coated, rabbit Anti-OVA IgG, then K-tag pG alone (negative control), then HRP-labeled anti-guinea pig IgG, TMB. The signal needs a second free IgG-binding site
[4] = biological target: Anti-OVA IgG (rabbit-derived); experiment: ELISA: OVA coated, rabbit Anti-OVA IgG, then wild-type pG sample (negative control), then HRP-labeled anti-guinea pig IgG, TMB. The signal needs a second free IgG-binding site

S/N ratio (No. 8 against No. 4 without antigen) [1]: 4.6
change in the absorbance at 370 nm (dO.D./min) [2]: 0.18 dO.D./min
Substance: commercially available HRP-labeled anti-rabbit IgG (antibody)

change in the absorbance at 370 nm (dO.D./min) [3]: < 0.03 dO.D./min
Substance: recombinant protein G with K-tag (K-tag pG), alone, not cross-linked to polymer

change in the absorbance at 370 nm (dO.D./min) [4]: < 0.03 dO.D./min
Substance: wild-type pG having no introduced K-tag (thrombin-treated K-tag pG)
